Test results taken from article PMC7311396 (2020).
Non-standard residues stand in square brackets, D forms with d. No end group written: not given here. Phe(4-NO2) = N[C@@H](Cc1ccc([N+](=O)[O-])cc1)C(=O)O; pS = N[C@@H](COP(=O)(O)O)C(=O)O; βAla = NCCC(=O)O

B1: 14-3-3.12, unlabeled (peptide)
chain: KVF[thiazolylalanine][pS][Phe(4-NO2)]S[βAla][Phe(4-NO2)]K-NH2
modifications: not fully specified (residue 7); also: position 7 is a β-residue, identity not given here
B2: 14-3-3γ (natural protein)
chain: MVDREQLVQKARLAEQAERYDDMAAAMKNVTELNEPLSNEERNLLSVAYKNVVGARRSSWRVISSIEQKTSADGNEKKIEMVRAYREKIEKELEAVCQDVLSLLDNYLIKNCSETQYESKVFYLKMKGDYYRYLAEVATGEKRATVVESSEKAYSEAHEISKEHMQPTHPIRLGLALNYSVFYYEIQNAPEQACHLAKTAFDDAIAELDTLNEDSYKDSTLIMQLLRDNLTLWTSDQQDDDGGEGNN
B3: FITC-labeled 14-3-3.12 (peptide)
chain: KVF[thiazolylalanine][pS][Phe(4-NO2)]S[βAla][Phe(4-NO2)]K-NH2
modifications: not fully specified (residue 7); also: FITC label, position not given here, position 7 is a β-residue, identity not given here

Experiments:
14-3-3γ [1] = biological target: B2; assay: FP; competition with FITC-BiExoS
FITC-labeled 14-3-3.1 = FITC-labeled 14-3-3.1 (FITC label (position not given); phosphoserine fixed in the middle, flanked by four varied positions on either side; non-canonical amino acids; C-terminal motif Nph-β-Ser-(β-Ala/β-Ser)-Nph; …); assay: FP
14-3-3γ [2] = biological target: B2; assay: FP

In the case of B1, the IC50 (14-3-3γ [1]) is reported as 198 nM.

Binder B2 has a Kd (FITC-labeled 14-3-3.1) of 5.7 nM.

B3 was tested, and the Kd (14-3-3γ [2]) was 19 nM.
